These results are taken from the RNAGym collection of RNA variant scans (doi:10.7554/elife.80360).

To fix the notation:
B1: CPEB3 Ribozyme (parent)
chain: GGGGGCCACAGCAGAAGCGUUCACGUCGCGGCCCCUGUCAGAUUCUGGUGAAUCUGCGAAUUCUGCUGU

Variants of B1 are the subject of this series. Put plainly: self-cleavage, relative activity (ratio to wild type); higher = more cleavage; co-transcriptional.
With GGGGGCCACAGCAGAAGCGUUCACGUCGCGGCCCCUCUCAGAUUCUGGUGGAUCUGCGAAUUCUGCUGU, the self-cleavage came to 0.205.
Regarding GGGGGCCACAGCAGAAGCGUUCACGUCGCGGCCCCUAUCAGAUUCUGGUGAAUCUGCGAACUCUGCUGU, the self-cleavage turned out to be 0.149.
Regarding GGGGGCCACAGCAGAAGCGUUCACGUCGCGGCCCCUAUCAGAUUCUGGUGAAUCUGCGAAGUCUGCUGU, the self-cleavage was 0.221.
The same measure for GGGGGCCACAGCAGAAGCGUUCACGUCGCGGCCCCUCUCAGAUUCUGGUGAUUCUGCGAAUUCUGCUGU: 0.254.
For the variant GGGGGCCACAGCAGAAGCGUUCACGUCGCGGCCCCUAUCAGAUUCUGGUGAAACUGCGAAUUCUGCUGU, the self-cleavage came out at 0.303.
Turning to GGGGGCCACAGCAGAAGCGUUCACGUCGCGGCCCCUAUCAGAUUCUGGUGAAGCUGCGAAUUCUGCUGU, the self-cleavage stood at 0.222.
As for GGGGGCCACAGCAGAAGCGUUCACGUCGCGGCCCCGGUCAGAUUCUGGUGAAUCGGCGAAUUCUGCUGU, the self-cleavage was 0.245.
Regarding GGGGGCCACAGCAGAAGCGUUCACGUCGCGGCCCCGGUCAGAUUCUGGUGAAUCCGCGAAUUCUGCUGU, the self-cleavage is 0.177.
For the variant GGGGGCCACAGCAGAAGCGUUCACGUCGCGGCCCCUAUCAGAUUCUGGUGAAUCUACGAAUUCUGCUGU, the self-cleavage amounted to 0.249.
The same measure for GGGGGCCACAGCAGAAGCGUUCACGUCGCGGCCCCUAUCAGAUUCUGGUGAAUCUUCGAAUUCUGCUGU: 0.257.
Consider GGGGGCCACAGCAGAAGCGUUCACGUCGCGGCCCCUAUCAGAUUCUGGUGAAUCGGCGAAUUCUGCUGU, for which the self-cleavage was determined as 0.234.
For GGGGGCCACAGCAGAAGCGUUCACGUCGCGGCCCCUAUCAGAUUCUGCUGAAUCUGCGAAUUCUGCUGU, the self-cleavage is 0.265.
With GGGGGCCACAGCAGAAGCGUUCACGUCGCGGCCCCUAUCAGAUUCUGAUGAAUCUGCGAAUUCUGCUGU, the self-cleavage is 0.357.
For GGGGGCCACAGCAGAAGCGUUCACGUCGCGGCCCCUCUCAGAUUCUGGUGAAUCUGCGAAUUCCGCUGU, the self-cleavage stood at 0.162.
As for GGGGGCCACAGCAGAAGCGUUCACGUCGCGGCCCCUCUCAGAUUCUGGUGAAUCUGCGAAUUCAGCUGU, the self-cleavage is 0.267.
With GGGGGCCACAGCAGAAGCGUUCACGUCGCGGCCCCUCUCAGAUUCUGGUGAAUGUGCGAAUUCUGCUGU, the self-cleavage worked out at 0.164.
In the case of GGGGGCCACAGCAGAAGCGUUCACGUCGCGGCCCCUCUCAGAUUCUGGAGAAUCUGCGAAUUCUGCUGU, the self-cleavage stood at 0.307.
For GGGGGCCACAGCAGAAGCGUUCACGUCGCGGCCCCUAUCAGAUUCUGGUGAAUCUGCGAAUGCUGCUGU, the self-cleavage was determined as 0.318.
As for GGGGGCCACAGCAGAAGCGUUCACGUCGCGGCCCCUAUCAGAUUCUGGCGAAUCUGCGAAUUCUGCUGU, the self-cleavage came to 0.303.
For the variant GGGGGCCACAGCAGAAGCGUUCACGUCGCGGCCCCUAUCAGAUUCUGGAGAAUCUGCGAAUUCUGCUGU, the self-cleavage is 0.285.
Consider GGGGGCCACAGCAGAAGCGUUCACGUCGCGGCCCCUCUCAGAUUCUGGUGAAUCUGCGAAUUCUGCUGA, for which the self-cleavage worked out at 0.336.
Turning to GGGGGCCACAGCAGAAGCGUUCACGUCGCGGCCCCUCUCAGAUUCUGGUGAAUCUGCGAAUUCUGCUGC, the self-cleavage amounted to 0.428.
In the case of GGGGGCCACAGCAGAAGCGUUCACGUCGCGGCCCCUAUCAGAUUCUGGUGCAUCUGCGAAUUCUGCUGU, the self-cleavage came out at 0.334.
In the case of GGGGGCCACAGCAGAAGCGUUCACGUCGCGGCCCCUAUCAGAUUCUGGUGGAUCUGCGAAUUCUGCUGU, the self-cleavage was 0.332.
As for GGGGGCCACAGCAGAAGCGUUCACGUCGCGGCCCCGGUCAGAUUCUGGUGAAUCUGCGAAUUCUGCUGG, the self-cleavage came out at 0.45.
GGGGGCCACAGCAGAAGCGUUCACGUCGCGGCCCCGGUCAGAUUCUGGUGAAUCUGCGAAUUCUGCUGC: the self-cleavage was found to be 0.493.
Under GGGGGCCACAGCAGAAGCGUUCACGUCGCGGCCCCUAUCAGAUUAUGGUGAAUCUGCGAAUUCUGCUGU stands 0.23.
As to GGGGGCCACAGCAGAAGCGUUCACGUCGCGGCCCCGGUCAGAUUCUGGUGAAUCUGCGAAUACUGCUGU, the self-cleavage is 0.131.
With GGGGGCCACAGCAGAAGCGUUCACGUCGCGGCCCCGGUCAGAUUCUGGUGAAUCUGCGAAUGCUGCUGU, the self-cleavage worked out at 0.238.
Consider GGGGGCCACAGCAGAAGCGUUCACGUCGCGGCCCCUAUCAGAUACUGGUGAAUCUGCGAAUUCUGCUGU, for which the self-cleavage was 0.277.
With GGGGGCCACAGCAGAAGCGUUCACGUCGCGGCCCCUCUCAGAUUCUGGUGAAUCUGCGAGUUCUGCUGU, the self-cleavage was found to be 0.237.
As to GGGGGCCACAGCAGAAGCGUUCACGUCGCGGCCCCUAUCAGAUUCUGGUGAAUCUGCGAAUUCUGCGGU, the self-cleavage came out at 0.334.
With GGGGGCCACAGCAGAAGCGUUCACGUCGCGGCCCCUAUCAGAUUCUGGUGAAUCUGCGAAUUCUGCCGU, the self-cleavage came to 0.321.
On to GGGGGCCACAGCAGAAGCGUUCACGUCGCGGCCCCUCUCAGAUUCUGGUGAAUCUCCGAAUUCUGCUGU, for which the self-cleavage turned out to be 0.223.
On to GGGGGCCACAGCAGAAGCGUUCACGUCGCGGCCCCUCUCAGAUUCUGGUGAAUCUGCGAAUUCUCCUGU, for which the self-cleavage amounted to 0.255.
On to GGGGGCCACAGCAGAAGCGUUCACGUCGCGGCCCCUAUCAGAUUCUGGUGACUCUGCGAAUUCUGCUGU, for which the self-cleavage worked out at 0.282.
Regarding GGGGGCCACAGCAGAAGCGUUCACGUCGCGGCCCCUCUCAAAUUCUGGUGAAUCUGCGAAUUCUGCUGU, the self-cleavage amounted to 0.245.
Consider GGGGGCCACAGCAGAAGCGUUCACGUCGCGGCCCCUCUCACAUUCUGGUGAAUCUGCGAAUUCUGCUGU, for which the self-cleavage amounted to 0.126.
As for GGGGGCCACAGCAGAAGCGUUCACGUCGCGGCCCCUCUCAGAUUCUGGUGAAUCUGCGUAUUCUGCUGU, the self-cleavage was found to be 0.242.
For the variant GGGGGCCACAGCAGAAGCGUUCACGUCGCGGCCCCUAUCAGAUUCUGGUGAAUCUGCGAAUUGUGCUGU, the self-cleavage worked out at 0.258.
For the variant GGGGGCCACAGCAGAAGCGUUCACGUCGCGGCCCCUAUCAGAUUCUGGUGAAUCUGCGAAUUCUGCUGA, the self-cleavage was found to be 0.422.
Under GGGGGCCACAGCAGAAGCGUUCACGUCGCGGCCCCUAUCAGAUUCUGGUGAAUCUGCGAAUUCUGCUGG stands 0.538; under GGGGGCCACAGCAGAAGCGUUCACGUCGCGGCCCCUUUCUGAUUCUGGUGAAUCUGCGAAUUCUGCUGU, 0.257; under GGGGGCCACAGCAGAAGCGUUCACGUCGCGGCCCCUCUCAGAUUGUGGUGAAUCUGCGAAUUCUGCUGU, 0.346.
Under GGGGGCCACAGCAGAAGCGUUCACGUCGCGGCCCCGGUCAGAUUCUGGUGAAUCUGCGAAUUCUGCGGU stands 0.252; under GGGGGCCACAGCAGAAGCGUUCACGUCGCGGCCCCUAUCAGAUUCUGGUGAAUCUGCGAAUUCUGGUGU, 0.265.
GGGGGCCACAGCAGAAGCGUUCACGUCGCGGCCCCUAUCAGAUUCUGGUGAAUCUGCGAAUUCUGAUGU: the self-cleavage was found to be 0.227.
GGGGGCCACAGCAGAAGCGUUCACGUCGCGGCCCCUCUCAGAUUCGGGUGAAUCUGCGAAUUCUGCUGU: the self-cleavage is 0.25.
Take GGGGGCCACAGCAGAAGCGUUCACGUCGCGGCCCCUCUCAGAUUCAGGUGAAUCUGCGAAUUCUGCUGU: the self-cleavage was found to be 0.236.
For GGGGGCCACAGCAGAAGCGUUCACGUCGCGGCCCCUAUCAGAUUCUGGUGAAUCUGCGACUUCUGCUGU, the self-cleavage is 0.274.
The same measure for GGGGGCCACAGCAGAAGCGUUCACGUCGCGGCCCCUAUCAGAUUCUGGUGAAUCUGCGAUUUCUGCUGU: 0.193; for GGGGGCCACAGCAGAAGCGUUCACGUCGCGGCCCCUCUCAGAUACUGGUGAAUCUGCGAAUUCUGCUGU: 0.27.
In the case of GGGGGCCACAGCAGAAGCGUUCACGUCGCGGCCCCUCUCAGAUGCUGGUGAAUCUGCGAAUUCUGCUGU, the self-cleavage worked out at 0.211.
On to GGGGGCCACAGCAGAAGCGUUCACGUCGCGGCCCCUAUCAGAUUCUGGUGAAUCUGCGAAUUCUGCUCU, for which the self-cleavage turned out to be 0.371.
Take GGGGGCCACAGCAGAAGCGUUCACGUCGCGGCCCCUCUCAGAUUCUGGUGAAUCUGCGAAUCCUGCUGU: the self-cleavage was 0.276.
For GGGGGCCACAGCAGAAGCGUUCACGUCGCGGCCCCUCGCAGAUUCUGGUGAAUCUGCGAAUUCUGCUGU, the self-cleavage was determined as 0.25.
With GGGGGCCACAGCAGAAGCGUUCACGUCGCGGCCCCUAUCAGAUUCUGGUGAAUCUGCUAAUUCUGCUGU, the self-cleavage is 0.247.
The same measure for GGGGGCCACAGCAGAAGCGUUCACGUCGCGGCCCCUAUCAGAUUCUGGUGAAUCUGCAAAUUCUGCUGU: 0.289; for GGGGGCCACAGCAGAAGCGUUCACGUCGCGGCCCCGGUCAGAUUCUGGUGAAUCUGCGAAUUCAGCUGU: 0.254.
Turning to GGGGGCCACAGCAGAAGCGUUCACGUCGCGGCCCCUAUCAUAUUCUGGUGAAUCUGCGAAUUCUGCUGU, the self-cleavage was determined as 0.219.
Under GGGGGCCACAGCAGAAGCGUUCACGUCGCGGCCCCUCUCAGAGUCUGGUGAAUCUGCGAAUUCUGCUGU stands 0.202.
The same measure for GGGGGCCACAGCAGAAGCGUUCACGUCGCGGCCCCUCUCAGAUUCUCGUGAAUCUGCGAAUUCUGCUGU: 0.18; for GGGGGCCACAGCAGAAGCGUUCACGUCGCGGCCCCUCUCAGAUUCUGCUGAAUCUGCGAAUUCUGCUGU: 0.226.
In the case of GGGGGCCACAGCAGAAGCGUUCACGUCGCGGCCCCUAUCAGAUUCUGGUGAAUGUGCGAAUUCUGCUGU, the self-cleavage amounted to 0.221.
For GGGGGCCACAGCAGAAGCGUUCACGUCGCGGCCCCUAUCAGAUUCUGGUAAAUCUGCGAAUUCUGCUGU, the self-cleavage is 0.304.
In the case of GGGGGCCACAGCAGAAGCGUUCACGUCGCGGCCCCUAUGAGAUUCUGGUGAAUCUGCGAAUUCUGCUGU, the self-cleavage came to 0.277.
The same measure for GGGGGCCACAGCAGAAGCGUUCACGUCGCGGCCCCUCUCAGCUUCUGGUGAAUCUGCGAAUUCUGCUGU: 0.237; for GGGGGCCACAGCAGAAGCGUUCACGUCGCGGCCCCUCUCAGGUUCUGGUGAAUCUGCGAAUUCUGCUGU: 0.213; for GGGGGCCACAGCAGAAGCGUUCACGUCGCGGCCCCUAUCAGAUUCUGGUGAAUCUGCGAAUUCCGCUGU: 0.312.
The same measure for GGGGGCCACAGCAGAAGCGUUCACGUCGCGGCCCCUUUCAGAUUCUGGUGCAUCUGCGAAUUCUGCUGU: 0.234; for GGGGGCCACAGCAGAAGCGUUCACGUCGCGGCCCCUCUCAGAUUCUGGUGAAUCUGCGAAUUCUGCGGU: 0.188; for GGGGGCCACAGCAGAAGCGUUCACGUCGCGGCCCCUCUCAGAUUCUGGUGAAUCUGCGAAUUCUGCAGU: 0.274.
As to GGGGGCCACAGCAGAAGCGUUCACGUCGCGGCCCCUCUCAGAUUCUGGUGAAGCUGCGAAUUCUGCUGU, the self-cleavage amounted to 0.129.
The same measure for GGGGGCCACAGCAGAAGCGUUCACGUCGCGGCCCCUCUCAGAUUCUGGUGAACCUGCGAAUUCUGCUGU: 0.284.
Take GGGGGCCACAGCAGAAGCGUUCACGUCGCGGCCCCGGUCAGAUUCUGGUGAAUCUGCGAAGUCUGCUGU: the self-cleavage was 0.179.
As for GGGGGCCACAGCAGAAGCGUUCACGUCGCGGCCCCGGUCAGAUUCUGGUGAAUCUGCGAACUCUGCUGU, the self-cleavage came to 0.139.
Turning to GGGGGCCACAGCAGAAGCGUUCACGUCGCGGCCCCUAUCAGGUUCUGGUGAAUCUGCGAAUUCUGCUGU, the self-cleavage was determined as 0.189.
As for GGGGGCCACAGCAGAAGCGUUCACGUCGCGGCCCCUAUCAGAUUCUGGUGAAUCUGCGUAUUCUGCUGU, the self-cleavage was determined as 0.215.
